Experimental data published in patent US20080171059.

What was measured:
[1] = biological target: Aga2p-N9V fusion surface-displayed on yeast, unmodified (G4S)3 linker (construct pCT-N9V, as in strain EBYN9V)
[2] = biological target: New York Esophageal 1 antigen (NY-ESO-1), P78358
New York Esophageal 1 antigen (NY-ESO-1), P78358, sequence (P78358 whole entry): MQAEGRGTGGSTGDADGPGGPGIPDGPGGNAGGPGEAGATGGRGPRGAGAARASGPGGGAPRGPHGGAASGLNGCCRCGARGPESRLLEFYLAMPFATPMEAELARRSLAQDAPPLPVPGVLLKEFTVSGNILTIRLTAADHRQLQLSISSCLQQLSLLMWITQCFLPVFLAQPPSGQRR

B1: recombinant human Cathepsin S (protein)
chain: LPDSVDWREKGCVTEVKYQGSCGACWAFSAVGALEAQLKLKTGKLVSLSAQNLVDCSTEKYGNKGCNGGFMTTAFQYIIDNKGIDSDASYPYKAMDQKCQYDSKYRAATCSKYTELPYGREDVLKEAVANKGPVSVGVDARHPSFFLYRSGVYYEPSCTQNVNHGVLVVGYGDLNGKEYWLVKNSWGHNFGEEGYIRMARNKGNHCGIASFPSYPEI
In the case of B1, the CatS cleavage rank order [1] is reported as 4 rank and the “cleavage by Cathepsin S” value [2] is reported as “the N-terminus of NY-ESO-1 (MQ|AE . . . ) ... are cleaved rapidly by Cathepsin S (at the positions indicated by the vertical bars)”.
